Measurements published in patent US20200297863A1, “ANTI-EGFR ANTIBODY DRUG CONJUGATES (ADC) AND USES THEREOF” (AbbVie Inc., priority 2017, published 2020).

Experiments:
CTG-9786 = CTG-9786 patient-derived head and neck cancer xenograft model; assay type: in vivo; conditions: much higher dose than the PBD ADCs
From the text: (§1) Numbers in parentheses represent dose in mg/kg, and arrows represent days of dosing.

LoVo = LoVo colorectal adenocarcinoma xenograft model; assay type: in vivo, mice; conditions: administered at a much higher dose than the PBD conjugates
Description: Numbers in parentheses represent dose in mg/kg. Arrows represent days of dosing.
Both conjugates were administered at 0.5mg/kg on a q7dx6 regimen (where mice were dosed every 7 days for 6 weeks).

CTG-0162 = CTG-0162 patient-derived NSCLC xenograft model; assay type: in vivo; conditions: dosed ten-fold higher than the PBD ADCs
From the text: as §1

B1: AbA-MMAE: AbA conjugated to monomethyl auristatin E via a cleavable valine-citrulline (VC) linker; DAR about 3 (conjugate, chains of the INN, looked up)
VH: EVQLQESGPGLVKPSQTLSLTCTVSGYSISRDFAWNWIRQPPGKGLEWMGYISYNGNTRYQPSLKSRITISRDTSKNQFFLKLNSVTAADTATYYCVTASRGFPYWGQGTLVTVSS
VL: DIQMTQSPSSMSVSVGDRVTITCHSSQDINSNIGWLQQKPGKSFKGLIYHGTNLDDGVPSRFSGSGSGTDYTLTISSLQPEDFATYYCVQYAQFPWTFGGGTKLEIK
modifications: vc-MMAE payload, DAR about 3
inhibition of tumor growth (CTG-9786): effective, but required a much higher dose
tumor response (LoVo): active in this model, with activity similar to that observed with Ab1(S239C)-PBD
inhibition of tumor growth (CTG-0162): less efficacious
